For the test, the target named is filamentous actin polymerized from human platelet actin (human) (UniProt P60709). As to the kind of experiment: co-sedimentation.

From publication PMC10539048 come the findings set out here.

Substance “human MAP2C T293E (from UniProt P11137-2 1-471) (natural protein)” had a percent reduction of actin-binding activity relative to WT of 43%.
To “human MAP2C T300E (from UniProt P11137-2 1-471) (natural protein)” belongs 43%.
